# Assay: soluble fraction after stress (log2 fold change); higher = more stays soluble; pooled small domains, quantitative proteomics
# Details: stress: pH 4
# Procedure, shortened: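 Values are on a log2 scale, where higher means more of the domain stayed soluble after pH 4 stress. They are fold changes in the soluble amount of each domain from pooled custom libraries, measured by high-throughput quantitative proteomics. The fold change is taken to reflect aggregation propensity.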
row,Sequence,soluble fraction (log2)
1,HMSAVNLNDDEKAVYKSIKSGIRSLDELSLRTGMKIYELMAITVSLEMKGLVTKSPDGTLDAT,-0.0308
2,HMKNSKIVIQKRHNHILELLKQNRTMDVTVLAERLGVTGATIRRDLKKLEQEGTIVRSFGKVSFVG,≥ 0.43
3,HMRQDEKTLLYWIAGHLKREGRQITERSARHLVEQVGTDMENLSREMEKLIAYTMGRTEITGQDIDDI,-1.21
4,HMLNPLLLPFVEAEDFQVKLEILAAMEGKVGEEDLDILYEALDLPKMTGNIEEQIHSIKQYIEMRK,-1.39
5,HMLQNLGFKPDLEIRHFPGIVLPDIHRSKKTISLLYTLLAGDIKKLPENEINYKDSKIISSYLWTLLRYH,0.22
6,HMHKYEYESLNHVNVGSNLKYISTHFGQPKLIKKSKYHENLNFAYYLEKKFILTLILEGDRVNAYTITG,-0.236
7,HMKSKPRVPFGSLVEMGILKPGSILFDPKGKIKTKVMVDGSIKYKETEGSIHKVAAQIMGTESYNGWTYW,-0.0629
8,HMGAPLAVGDSVRVVVSGPRAFVYTAPNGALSGAVRNGAAFTVLELSPDNTWARIGSGEWIKVEFLATG,-0.373
9,HMQTTEDMEINAKVDEYLREMYLWNDEYKTLNLDHNKGYEDFFYDALGSMTTNTLDKKTYVGSDGKTYYNL,-0.933
10,HMPGRVITVMVNGKRVDLPFREEPYIFVDLFRYMDFDVERARGRIQLAINGKKAGYTDIIREGDSIEI,-1.02
11,HMSQPALSYAFAKAQGVIVTALGDVAEVARRKGSQPQALAEVRRIAGRPLALREVDDAAFDRLLQDHYARS,-0.0203
12,HMDRMIPPYGLEVTYDKTTHIIFPSAVRYVDLGSPNLIAGKADGSENVIRVKATRKNFREETNMSVITE,-0.0773
13,HMVAGQDPVKRQQILDGAKRVFLGVGFDAASMNDITREAGVSKGTIYVYFGSKEELFGALIDR,-0.807
14,HMPAYYQKEAVLDGRASVFAYERDPSSWYFKQLIPGTKKYRTKKIQGATTLEQAKSQALDIALGLRDEP,0.243
15,HMLNEWIDYIDEHIKEELTAKNLATVFGYSERHFRNVFQIYYDIKLNDYIRRRKLYFAAQELKKG,-1.76
16,HMTIDTSNDLLNQITEATSKGPISILELKDQLNVNASDIEGELRTLIDQHLVFLKDGMLQVIPFD,-0.423
17,HMDRKEEIIIVTLKLASQIGLSNVSMEQIAKQVGIKKPSLYNHFKSKDEIIDAMYEYLREKSKN,-1.16
18,HMEISEILNPPLVTAMAERYPEVDVSYYRDKYILYYESREHKITDHRRNFEKWLLVESQKEEN,-1.66
19,HMDTMQQESMDTKSILATALMELTSRKNFAKITIADITHVSGFNRQTFYYHFRDKYELLSWIY,-0.117

row,Sequence,soluble fraction (log2)
1,HMRPKAIFVDVDDTLVRSVGQTRIPMPAVIAHIRRLHDAGHQLYLWSSGGADYARASAEELGIGQYFQAFL,-0.32
2,HMNLVRQHTDYAFRLLVALSQAPGKPISTRTLASAADVPYQFASKIMQKLHEEGLVESVMGPFGGFRLVQ,-0.419
3,HMYVYEPGEFAVRGSILDVYSYASEFPYRIDFFGDDVESIRTFEVQTQLSKEAKDRVSIVPDTEQ,-0.585
4,HMNTIIIDILPKGLSIAGNQTEPKSLIQQLLMARRADPAQPILLRPAIAVPVQNVVELIDRLTAAGI,-0.412
5,HMKTDFEIDITVKASSLRVVASPGGDELVGTVTRGDRVTQLATPKDGWILIKMTDGRLGYVPESLLLFP,-0.89
6,HMTRRGPLTEGDRVQVRDPKGRFHQVILVRGGRFQSNRGGFNHDDVIGRPDGQVIITDEGRQFQIL,0.0981
7,HMIIVMASSKKEDVAHVVHKIEELGYKAHVIVGVERTVVAAVGDERGKERLISLEALPHVEKVFPILK,-0.167
8,HMEKEFLFNGGKVVMNYEADRIQIMHDTKPGQDVITLMKKNGFKWSPFNKAWQRQITANAIYTTKHLINQ,-0.6
9,HMAMYSREKLKKLREDRGLTQYELAKIAGISVVTLNKIESSDSAKPFVKTLNKIAQALGVGIDELS,≥ 0.43
10,HMLAHSEFGARLRETRKRLGLSQSELGGDRYSGSYISHLESGRRAASAEVIEFLAGRLGVEVEELGM,-1.2
11,HMNPGQIIRKLRQDQGMTLAVLAKYANLDPGNLSRIERDDLNISFNLLEKLSLILNVSPIVFFH,-0.0716
12,HMPLIPIAIELARHALPSLIGAIAGDKSEKVAKEVVDAALKTTGKTTPDEALHALQADPQLAHEYRLSLL,-0.466
13,HMEDIEEVIVEIDTVLRTHFDRGRTEVLFAEIETAGGRPFMTYLALLFMAHRGSVRLQQDDLFGDLWVKDP,-0.959
14,HMSTVELPVQINGKVRGRITVPANAGQEDVKQAALADSKVQRYIEGASIRKVIVVPRKLVNIVV,≥ 0.43
15,HMIHEQSLHKIRNFIGSLPESLRTAFTLREQDGLSYEEIGKITNTPIGTVRSRIYRARESILDHINQE,-0.2
16,HMVKSIDEIYNEAVKSLANEDYDAAKKLFNYLINNFSDPDKFPLSLFWLAEIEFSSSNFDASKNYYMQ,-0.225
17,HMKRWHVGDPIDALTAAGKVPSWSTIRQRFWKTIAALYPDIEQSERLQRGLAMLDEAGTSIELHHP,-0.615
18,HMVSRQINVIPDDLAGLRLDQALAHLFPQHSRSRLKEWLLEDIIIVQGGPKRPKDIVSGGEIVEIKL,-1.2
19,HMLLTHPKRVFTYELIMELVWNEDYTFYSKKAVSNHMSNLRKKLKVTPDALDYIKNIVGVGYKFEA,-0.0812
